Test results published in patent US20150344570A1 (published 2015).

T1: FcγRIIb extracellular domain with C-terminal His tag (human, UniProt P31994 43-217)
T1 construct: extracellular domain; also called FcgRIIb; CD32B; not shown: His tag at the C terminus
T1 sequence (looked up): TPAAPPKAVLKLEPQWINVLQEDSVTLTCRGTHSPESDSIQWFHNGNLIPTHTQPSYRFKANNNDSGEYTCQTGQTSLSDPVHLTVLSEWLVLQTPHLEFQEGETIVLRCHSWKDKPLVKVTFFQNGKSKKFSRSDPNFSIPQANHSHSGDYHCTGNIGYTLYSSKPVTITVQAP


What was measured:
[1] = target: T2, FcγRIa extracellular domain with C-terminal His tag (human, UniProt P12314 16-292); assay: SPR; He/Con_1a divided by He/Con_2b (FcγRIa against FcγRIIb)
T2 construct: extracellular domain; also called FcgRI; CD64; not shown: His tag at the C terminus
T2 sequence (P12314 16-292): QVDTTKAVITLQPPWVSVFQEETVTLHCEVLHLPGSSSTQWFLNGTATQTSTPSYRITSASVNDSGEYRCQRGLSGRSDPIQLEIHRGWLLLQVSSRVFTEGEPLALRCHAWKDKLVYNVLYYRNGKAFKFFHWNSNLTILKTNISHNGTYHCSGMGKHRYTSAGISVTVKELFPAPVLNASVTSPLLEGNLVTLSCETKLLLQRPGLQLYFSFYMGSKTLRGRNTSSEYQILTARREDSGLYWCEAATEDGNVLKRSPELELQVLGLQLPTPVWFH

[2] = target: T1, FcγRIIb extracellular domain with …; assay: SPR (Biacore), antibody captured, FcγR analyte; relative to GpH7-A5/GpH7-B3/GpL16-k0 = 100
[3] = target: T2, FcγRIa extracellular domain with …; assay: as above

He_1a/2b (Ia/IIb) [1]	He/Con_2b [2]	He/Con_1a [3]	Binder
1.81 ratio	58.2 % of HeCon Ab	105 % of HeCon Ab	GpH7-A5/GpH7-B3 variant G236_20W/GpL16-k0 (antibody, human IgG1, kappa, Heterodimerized anti-glypican-3 IgG1; mutation only in the GpH7-B3 H chain; also called He Ab; GpH7-A5/GpH7-B3-03-20W/GpL16-k0) heavy 1: not shown heavy 2: not shown light: DIVMTQSPLSLPVTPGEPASISCQASESLVHSNRNTYLHWYLQKPGQSPQLLIYKVSNRFSGVPDRFSGSGSGTDFTLKISRVEAEDVGVYYCSQNTHVPPTFGQGTKVEIERTVAAPSVFIFPPSDEQLKSGTASVVCLLNNFYPREAKVQWKVDNALQSGNSQESVTEQDSKDSTYSLSSTLTLSKADYEKHKVYACEVTHQGLSSPVTKSFNRGEC
1.42 ratio	49.8 % of HeCon Ab	71 % of HeCon Ab	GpH7-A5/GpH7-B3 variant G236_11K/GpL16-k0 (antibody, human IgG1, kappa, Heterodimerized anti-glypican-3 IgG1; mutation only in the GpH7-B3 H chain; also called He Ab) heavy 1: not shown heavy 2: not shown light: DIVMTQSPLSLPVTPGEPASISCQASESLVHSNRNTYLHWYLQKPGQSPQLLIYKVSNRFSGVPDRFSGSGSGTDFTLKISRVEAEDVGVYYCSQNTHVPPTFGQGTKVEIERTVAAPSVFIFPPSDEQLKSGTASVVCLLNNFYPREAKVQWKVDNALQSGNSQESVTEQDSKDSTYSLSSTLTLSKADYEKHKVYACEVTHQGLSSPVTKSFNRGEC
2.82 ratio	31 % of HeCon Ab	87.5 % of HeCon Ab	GpH7-A5/GpH7-B3 variant G236_07I/GpL16-k0 (antibody, human IgG1, kappa, Heterodimerized anti-glypican-3 IgG1; mutation only in the GpH7-B3 H chain; also called He Ab) heavy 1: not shown heavy 2: not shown light: DIVMTQSPLSLPVTPGEPASISCQASESLVHSNRNTYLHWYLQKPGQSPQLLIYKVSNRFSGVPDRFSGSGSGTDFTLKISRVEAEDVGVYYCSQNTHVPPTFGQGTKVEIERTVAAPSVFIFPPSDEQLKSGTASVVCLLNNFYPREAKVQWKVDNALQSGNSQESVTEQDSKDSTYSLSSTLTLSKADYEKHKVYACEVTHQGLSSPVTKSFNRGEC
2.34 ratio	39.5 % of HeCon Ab	92.5 % of HeCon Ab	GpH7-A5/GpH7-B3 variant G236_15Y/GpL16-k0 (antibody, human IgG1, kappa, Heterodimerized anti-glypican-3 IgG1; mutation only in the GpH7-B3 H chain; also called He Ab) heavy 1: not shown heavy 2: not shown light: DIVMTQSPLSLPVTPGEPASISCQASESLVHSNRNTYLHWYLQKPGQSPQLLIYKVSNRFSGVPDRFSGSGSGTDFTLKISRVEAEDVGVYYCSQNTHVPPTFGQGTKVEIERTVAAPSVFIFPPSDEQLKSGTASVVCLLNNFYPREAKVQWKVDNALQSGNSQESVTEQDSKDSTYSLSSTLTLSKADYEKHKVYACEVTHQGLSSPVTKSFNRGEC
9.3 ratio	6.8 % of HeCon Ab	63.1 % of HeCon Ab	GpH7-A5/GpH7-B3 variant G236_12R/GpL16-k0 (antibody, human IgG1, kappa, Heterodimerized anti-glypican-3 IgG1; mutation only in the GpH7-B3 H chain; also called He Ab) heavy 1: not shown heavy 2: not shown light: DIVMTQSPLSLPVTPGEPASISCQASESLVHSNRNTYLHWYLQKPGQSPQLLIYKVSNRFSGVPDRFSGSGSGTDFTLKISRVEAEDVGVYYCSQNTHVPPTFGQGTKVEIERTVAAPSVFIFPPSDEQLKSGTASVVCLLNNFYPREAKVQWKVDNALQSGNSQESVTEQDSKDSTYSLSSTLTLSKADYEKHKVYACEVTHQGLSSPVTKSFNRGEC
1.66 ratio	57.4 % of HeCon Ab	95.2 % of HeCon Ab	GpH7-A5/GpH7-B3 variant P238_02A/GpL16-k0 (antibody, human IgG1, kappa, Heterodimerized anti-glypican-3 IgG1; mutation only in the GpH7-B3 H chain; also called He Ab) heavy 1: not shown heavy 2: not shown light: DIVMTQSPLSLPVTPGEPASISCQASESLVHSNRNTYLHWYLQKPGQSPQLLIYKVSNRFSGVPDRFSGSGSGTDFTLKISRVEAEDVGVYYCSQNTHVPPTFGQGTKVEIERTVAAPSVFIFPPSDEQLKSGTASVVCLLNNFYPREAKVQWKVDNALQSGNSQESVTEQDSKDSTYSLSSTLTLSKADYEKHKVYACEVTHQGLSSPVTKSFNRGEC
1.81 ratio	24.6 % of HeCon Ab	44.5 % of HeCon Ab	GpH7-A5/GpH7-B3 variant G237_05P/GpL16-k0 (antibody, human IgG1, kappa, Heterodimerized anti-glypican-3 IgG1; mutation only in the GpH7-B3 H chain; also called He Ab) heavy 1: not shown heavy 2: not shown light: DIVMTQSPLSLPVTPGEPASISCQASESLVHSNRNTYLHWYLQKPGQSPQLLIYKVSNRFSGVPDRFSGSGSGTDFTLKISRVEAEDVGVYYCSQNTHVPPTFGQGTKVEIERTVAAPSVFIFPPSDEQLKSGTASVVCLLNNFYPREAKVQWKVDNALQSGNSQESVTEQDSKDSTYSLSSTLTLSKADYEKHKVYACEVTHQGLSSPVTKSFNRGEC
1.28 ratio	61.4 % of HeCon Ab	78.5 % of HeCon Ab	GpH7-A5/GpH7-B3 variant G237_03V/GpL16-k0 (antibody, human IgG1, kappa, Heterodimerized anti-glypican-3 IgG1; mutation only in the GpH7-B3 H chain; also called He Ab) heavy 1: not shown heavy 2: not shown light: DIVMTQSPLSLPVTPGEPASISCQASESLVHSNRNTYLHWYLQKPGQSPQLLIYKVSNRFSGVPDRFSGSGSGTDFTLKISRVEAEDVGVYYCSQNTHVPPTFGQGTKVEIERTVAAPSVFIFPPSDEQLKSGTASVVCLLNNFYPREAKVQWKVDNALQSGNSQESVTEQDSKDSTYSLSSTLTLSKADYEKHKVYACEVTHQGLSSPVTKSFNRGEC
2.99 ratio	27.9 % of HeCon Ab	83.5 % of HeCon Ab	GpH7-A5/GpH7-B3 variant G236_16H/GpL16-k0 (antibody, human IgG1, kappa, Heterodimerized anti-glypican-3 IgG1; mutation only in the GpH7-B3 H chain; also called He Ab) heavy 1: not shown heavy 2: not shown light: DIVMTQSPLSLPVTPGEPASISCQASESLVHSNRNTYLHWYLQKPGQSPQLLIYKVSNRFSGVPDRFSGSGSGTDFTLKISRVEAEDVGVYYCSQNTHVPPTFGQGTKVEIERTVAAPSVFIFPPSDEQLKSGTASVVCLLNNFYPREAKVQWKVDNALQSGNSQESVTEQDSKDSTYSLSSTLTLSKADYEKHKVYACEVTHQGLSSPVTKSFNRGEC
